B1: Cripto mutant lacking the CFC domain (ΔCFC), Flag-tagged (ligand, not shown: small tags and cut ends)
chain: not shown
notes: also called Cripto ACFC mutant; ACFC
B2: TGF-β type I receptor, HA-tagged (TβRI-HA) (receptor, UniProt P36897 34-503, looked up, not shown: small tags and cut ends)
chain: LQCFCHLCTKDNFTCVTDGLCFVSVTETTDKVIHNSMCIAEIDLIPRDRPFVCAPSSKTGSVTTTYCCNQDHCNKIELPTTVKSSPGLGPVELAAVIAGPVCFVCISLMLMVYICHNRTVIHHRVPNEEDPSLDRPFISEGTTLKDLIYDMTTSGSGSGLPLLVQRTIARTIVLQESIGKGRFGEVWRGKWRGEEVAVKIFSSREERSWFREAEIYQTVMLRHENILGFIAADNKDNGTWTQLWLVSDYHEHGSLFDYLNRYTVTVEGMIKLALSTASGLAHLHMEIVGTQGKPAIAHRDLKSKNILVKKNGTCCIADLGLAVRHDSATDTIDIAPNHRVGTKRYMAPEVLDDSINMKHFESFKRADIYAMGLVFWEIARRCSIGGIHEDYQLPYYDLVPSDPSVEEMRKVVCEQKLRPNIPNRWQSCEALRVMAKIMRECWYANGAARLTALRIKKTLSQLSQQEGIKM
notes: whole, on cells; Gift construct; also called TBβRI-HA; TBβRI
B3: endogenous human GRP78 (glucose regulated protein 78) at the cell surface (receptor)
chain: not shown
notes: whole, on cells; Endogenous protein; surface pool labelled with cell-impermeable biotin in the co-immunoprecipitations; also called BiP; cell surface GRP78

The target of assay [1] is T1, human GRP78 with a hemagglutinin (HA) epitope at its C terminus (human, UniProt P11021 19-654).
T1 construct: also called GRP78-HA; WT GRP78-HA
T1 sequence (P11021 19-654 limits assumed): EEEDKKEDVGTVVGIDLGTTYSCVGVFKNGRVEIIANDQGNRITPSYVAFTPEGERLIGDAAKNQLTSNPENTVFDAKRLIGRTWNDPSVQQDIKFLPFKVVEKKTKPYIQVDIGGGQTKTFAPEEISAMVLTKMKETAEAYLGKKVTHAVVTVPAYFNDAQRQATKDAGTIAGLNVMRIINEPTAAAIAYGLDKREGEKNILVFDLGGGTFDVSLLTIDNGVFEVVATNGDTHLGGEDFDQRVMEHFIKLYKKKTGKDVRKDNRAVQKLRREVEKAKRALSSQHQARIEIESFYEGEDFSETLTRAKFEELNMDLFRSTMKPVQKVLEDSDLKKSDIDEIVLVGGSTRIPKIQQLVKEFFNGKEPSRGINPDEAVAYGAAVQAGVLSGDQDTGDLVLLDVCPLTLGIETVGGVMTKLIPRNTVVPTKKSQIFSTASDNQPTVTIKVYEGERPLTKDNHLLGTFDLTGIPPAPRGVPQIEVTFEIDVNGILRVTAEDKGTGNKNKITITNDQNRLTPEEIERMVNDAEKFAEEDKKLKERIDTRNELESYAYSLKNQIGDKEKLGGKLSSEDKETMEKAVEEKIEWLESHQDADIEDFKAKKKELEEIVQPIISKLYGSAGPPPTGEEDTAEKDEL
Nature of the assay: cell-free pull-down of biotinylated GRP78-HA on Cripto mutant beads. From the text: To further characterize the ability of Cripto to bind cell surface GRP78, the inventors tested whether GRP78 from one population of cells could bind mature Cripto isolated from a separate cell population in a cell free system. […] The beads were then washed again and bound proteins were eluted with Flag peptide and subjected to Western blotting using avidin-HRP, anti-GRP78 or anti-Cripto antibodies. […] Moreover, biotinylated (i.e. cell surface-labeled) GRP78 was specifically eluted from beads previously exposed to Cripto-Flag lysates but not from beads exposed to vector lysates.
In order to explore the interaction between Cripto and GRP78 further, the inventors used the method described above (FIG. 2B) to test whether cell surface labeled GRP78 binds Cripto mutants lacking either the EGF-like domain (AEGF) or CFC domain (ACFC). In this experiment, the inventors assessed the ability of biotinylated, HA-tagged GRP78 from one cell population to bind wild type and mutant forms of Cripto originating from separate cell populations.

Assay [2] addresses B3. Nature of the assay: anti-HA immunoprecipitation from surface-biotinylated 293T cells, avidin-HRP and anti-GRP78 blots. The protocol: (§1) Cell lysates and immunoprecipitations. Cell lysates were prepared in RIPA buffer as previously described (Gray et al., 2006). For immunoprecipitation experiments, 1-5 mg protein extract was pre-cleared by protein G-PLUS-Agarose beads for 2 hours at 4° C. The pre-cleared extracts were incubated as indicated with 40 μl anti-FLAG M2 gel beads or 20 μl G-PLUS-Agarose pre-incubated with 15 μl anti-GRP78 (KDEL), 10 μl anti-HA, or 25 μl anti-His for 2 hours at 4° C. Immunoprecipitates were subsequently washed 4 times with RIPA buffer and 2 times with 54K buffer (50 mM tris pH 7.9, 150 mM NaCl, 0.5% Triton X-100). The proteins were then eluted either by heating the beads at 95° C. in sample buffer or by the addition of 50 μl of Flag peptide (1 μg/μl) followed by removal of any remaining associated proteins by heating in sample buffer. Western blotting
(§2) The finding that GRP78 inhibits TGF-β signaling raised the possibility that it does so by binding directly to type I and/or type II TGF-β signaling receptors. […] Here the inventors have further tested whether GRP78 similarly co-immunoprecipitates with TBβRI and TBβRII. […] Each of these proteins was immunoprecipitated as bait and then immune complexes were assessed for the presence of GRP78. […] However, only Cripto pulled down endogenous GRP78 as detected both by avidin-HRP and anti-GRP78 antibody (FIG. 5).

Assay [3] has as its target T2, TGF-β type II receptor, His-tagged (TβRII-His) (UniProt P37173 23-166, limits assumed).
T2 construct: whole, on cells; Gift construct; also called TBβRII-His; TBβRII; not shown: His tag
The experiment in a line: anti-His immunoprecipitation from surface-biotinylated 293T cells, avidin-HRP and anti-GRP78 blots. The protocol: as §1, §2

T2 sequence (P37173 23-166 limits assumed): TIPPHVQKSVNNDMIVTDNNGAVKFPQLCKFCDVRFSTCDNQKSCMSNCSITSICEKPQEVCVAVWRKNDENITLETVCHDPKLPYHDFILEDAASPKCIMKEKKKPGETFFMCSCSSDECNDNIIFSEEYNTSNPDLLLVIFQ

On to B1, for which the binding result in assay [1] is “no binding”.

On to B2, for which, in assay [2], the binding result is recorded as “no binding”.

Consider B3, for which the binding result in assay [3] is listed as “no binding”.

For the origin of these results see patent publication US20100135904A1 (RESEARCH DEVELOPMENT FOUNDATION, published 2010).
